B1: BG138P-Hz0 (antibody, human IgG1, V domains shown)
VH: QVQLVQSGAEVKKPGASVKVSCKASGYTFTTYTMHWVRQAPGQRLEWMGYINPGSDYTHYNQKFKDRVTITRDTSASTAYMELSSLRSEDTAVYYCARQGNYAAYYFDYWGQGTLVTVSS
VL: DIQMTQSPSSLSASVGDRVTITCRASGNIHNFLVWYQQKPGKVPKLLIYNAKTLTDGVPSRFSGSGSGTDFTLTISSLQPEDVATYYCQNFWNVPFTFGQGTKLEIK
B2: BG138P-Bz16 (antibody, human IgG1, V domains shown)
VH: QVQLVQSGAEVKKPGASVKVSCKASGYTFTTYTMHWIKQAPGQGLEWIGYINPGSDYTHYNQKFKDKATLTADKSASTAYMELYSLRSEDTAVYYCARQGNYAAYYFDYWGQGTLVTVSS
VL: DIQMTQSPSSLSASVGDRVTITCRASGNIHNFLVWYQQKPGKSPKLLVYNAKTLTDGVPSRFSGSGSGTQYSLTISSLQPEDVATYYCQNFWNVPFTFGQGTKLEIK
B3: BG138P-Bz14 (antibody, human IgG1, V domains shown)
VH: QVQLVQSGAEVKKPGASVKVSCKASGYTFTTYTMHWIKQAPGQGLEWIGYINPGSDYTHYNQKFKDKATLTADKSASTAYMELYSLRSEDTAVYYCARQGNYAAYYFDYWGQGTLVTVSS
VL: DIQMTQSPSSLSASVGDRVTITCRASGNIHNFLVWYQQKPGKSPKLLVYNAKTLTDGVPSRFSGSGSGTQFSLTISSLQPEDVATYYCQNFWNVPFTFGSGTKLEIK
B4: BG138P-Bz5 (antibody, human IgG1, V domains shown)
VH: QVQLVQSGAEVKKPGASVKVSCKASGYTFTTYTMHWIKQAPGQGLEWIGYINPGSDYTHYNQKFKDRATLTADKSASTAYMELYSLRSEDTAVYYCARQGNYAAYYFDYWGQGTLVTVSS
VL: DIQMTQSPSSLSASVGDRVTITCRASGNIHNFLVWYQQKPGKSPKLLVYNAKTLTDGVPSRFSGSGSGTQYSLTISSLQPEDVATYYCQNFWNVPFTFGSGTKLEIK
B5: BG138P-Bz4 (antibody, human IgG1, V domains shown)
VH: QVQLVQSGAEVKKPGASVKVSCKASGYTFTTYTMHWIKQAPGQGLEWMGYINPGSDYTHYNQKFKDKATLTADKSASTAYMELYSLRSEDTAVYYCARQGNYAAYYFDYWGQGTLVTVSS
VL: DIQMTQSPSSLSASVGDRVTITCRASGNIHNFLVWYQQKPGKSPKLLVYNAKTLTDGVPSRFSGSGSGTQYSLTISSLQPEDVATYYCQNFWNVPFTFGSGTKLEIK
B6: BG138P-Bz15 (antibody, human IgG1, V domains shown)
VH: QVQLVQSGAEVKKPGASVKVSCKASGYTFTTYTMHWIKQAPGQGLEWIGYINPGSDYTHYNQKFKDKATLTADKSASTAYMELYSLRSEDTAVYYCARQGNYAAYYFDYWGQGTLVTVSS
VL: DIQMTQSPSSLSASVGDRVTITCRASGNIHNFLVWYQQKPGKSPKLLVYNAKTLTDGVPSRFSGSGSGTQYTLTISSLQPEDVATYYCQNFWNVPFTFGSGTKLEIK
B7: BG138P-Bz12 (antibody, human IgG1, V domains shown)
VH: QVQLVQSGAEVKKPGASVKVSCKASGYTFTTYTMHWIKQAPGQGLEWIGYINPGSDYTHYNQKFKDKATLTADKSASTAYMELYSLRSEDTAVYYCARQGNYAAYYFDYWGQGTLVTVSS
VL: DIQMTQSPSSLSASVGDRVTITCRASGNIHNFLVWYQQKPGKSPKLLIYNAKTLTDGVPSRFSGSGSGTQYSLTISSLQPEDVATYYCQNFWNVPFTFGSGTKLEIK
B8: BG138P-Bz11 (antibody, human IgG1, V domains shown)
VH: QVQLVQSGAEVKKPGASVKVSCKASGYTFTTYTMHWIKQAPGQGLEWIGYINPGSDYTHYNQKFKDKATLTADKSASTAYMELYSLRSEDTAVYYCARQGNYAAYYFDYWGQGTLVTVSS
VL: DIQMTQSPSSLSASVGDRVTITCRASGNIHNFLVWYQQKPGKVPKLLVYNAKTLTDGVPSRFSGSGSGTQYSLTISSLQPEDVATYYCQNFWNVPFTFGSGTKLEIK
B9: BG138P-Bz6 (antibody, human IgG1, V domains shown)
VH: QVQLVQSGAEVKKPGASVKVSCKASGYTFTTYTMHWIKQAPGQGLEWIGYINPGSDYTHYNQKFKDKVTLTADKSASTAYMELYSLRSEDTAVYYCARQGNYAAYYFDYWGQGTLVTVSS
VL: DIQMTQSPSSLSASVGDRVTITCRASGNIHNFLVWYQQKPGKSPKLLVYNAKTLTDGVPSRFSGSGSGTQYSLTISSLQPEDVATYYCQNFWNVPFTFGSGTKLEIK
B10: BG138P-Bz10 (antibody, human IgG1, V domains shown)
VH: QVQLVQSGAEVKKPGASVKVSCKASGYTFTTYTMHWIKQAPGQGLEWIGYINPGSDYTHYNQKFKDKATLTADKSASTAYMELSSLRSEDTAVYYCARQGNYAAYYFDYWGQGTLVTVSS
VL: DIQMTQSPSSLSASVGDRVTITCRASGNIHNFLVWYQQKPGKSPKLLVYNAKTLTDGVPSRFSGSGSGTQYSLTISSLQPEDVATYYCQNFWNVPFTFGSGTKLEIK
B11: BG138P-Bz8 (antibody, human IgG1, V domains shown)
VH: QVQLVQSGAEVKKPGASVKVSCKASGYTFTTYTMHWIKQAPGQGLEWIGYINPGSDYTHYNQKFKDKATLTRDKSASTAYMELYSLRSEDTAVYYCARQGNYAAYYFDYWGQGTLVTVSS
VL: DIQMTQSPSSLSASVGDRVTITCRASGNIHNFLVWYQQKPGKSPKLLVYNAKTLTDGVPSRFSGSGSGTQYSLTISSLQPEDVATYYCQNFWNVPFTFGSGTKLEIK
B12: BG138P-Bz9 (antibody, human IgG1, V domains shown)
VH: QVQLVQSGAEVKKPGASVKVSCKASGYTFTTYTMHWIKQAPGQGLEWIGYINPGSDYTHYNQKFKDKATLTADTSASTAYMELYSLRSEDTAVYYCARQGNYAAYYFDYWGQGTLVTVSS
VL: DIQMTQSPSSLSASVGDRVTITCRASGNIHNFLVWYQQKPGKSPKLLVYNAKTLTDGVPSRFSGSGSGTQYSLTISSLQPEDVATYYCQNFWNVPFTFGSGTKLEIK
B13: BG138P-Bz2 (antibody, human IgG1, V domains shown)
VH: QVQLVQSGAEVKKPGASVKVSCKASGYTFTTYTMHWIRQAPGQGLEWIGYINPGSDYTHYNQKFKDKATLTADKSASTAYMELYSLRSEDTAVYYCARQGNYAAYYFDYWGQGTLVTVSS
VL: DIQMTQSPSSLSASVGDRVTITCRASGNIHNFLVWYQQKPGKSPKLLVYNAKTLTDGVPSRFSGSGSGTQYSLTISSLQPEDVATYYCQNFWNVPFTFGSGTKLEIK
B14: BG138P-Bz3 (antibody, human IgG1, V domains shown)
VH: QVQLVQSGAEVKKPGASVKVSCKASGYTFTTYTMHWIKQAPGQRLEWIGYINPGSDYTHYNQKFKDKATLTADKSASTAYMELYSLRSEDTAVYYCARQGNYAAYYFDYWGQGTLVTVSS
VL: DIQMTQSPSSLSASVGDRVTITCRASGNIHNFLVWYQQKPGKSPKLLVYNAKTLTDGVPSRFSGSGSGTQYSLTISSLQPEDVATYYCQNFWNVPFTFGSGTKLEIK
B15: BG138P-Bz0 (antibody, human IgG1, V domains shown)
VH: QVQLVQSGAEVKKPGASVKVSCKASGYTFTTYTMHWIKQAPGQGLEWIGYINPGSDYTHYNQKFKDKATLTADKSASTAYMELYSLRSEDTAVYYCARQGNYAAYYFDYWGQGTLVTVSS
VL: DIQMTQSPSSLSASVGDRVTITCRASGNIHNFLVWYQQKPGKSPKLLVYNAKTLTDGVPSRFSGSGSGTQYSLTISSLQPEDVATYYCQNFWNVPFTFGSGTKLEIK
B16: BG138P-Bz7 (antibody, human IgG1, V domains shown)
VH: QVQLVQSGAEVKKPGASVKVSCKASGYTFTTYTMHWIKQAPGQGLEWIGYINPGSDYTHYNQKFKDKATITADKSASTAYMELYSLRSEDTAVYYCARQGNYAAYYFDYWGQGTLVTVSS
VL: DIQMTQSPSSLSASVGDRVTITCRASGNIHNFLVWYQQKPGKSPKLLVYNAKTLTDGVPSRFSGSGSGTQYSLTISSLQPEDVATYYCQNFWNVPFTFGSGTKLEIK
B17: BG138P-Bz1 (antibody, human IgG1, V domains shown)
VH: QVQLVQSGAEVKKPGASVKVSCKASGYTFTTYTMHWVKQAPGQGLEWIGYINPGSDYTHYNQKFKDKATLTADKSASTAYMELYSLRSEDTAVYYCARQGNYAAYYFDYWGQGTLVTVSS
VL: DIQMTQSPSSLSASVGDRVTITCRASGNIHNFLVWYQQKPGKSPKLLVYNAKTLTDGVPSRFSGSGSGTQYSLTISSLQPEDVATYYCQNFWNVPFTFGSGTKLEIK
B18: BG138P-Bz13 (antibody, human IgG1, V domains shown)
VH: QVQLVQSGAEVKKPGASVKVSCKASGYTFTTYTMHWIKQAPGQGLEWIGYINPGSDYTHYNQKFKDKATLTADKSASTAYMELYSLRSEDTAVYYCARQGNYAAYYFDYWGQGTLVTVSS
VL: DIQMTQSPSSLSASVGDRVTITCRASGNIHNFLVWYQQKPGKSPKLLVYNAKTLTDGVPSRFSGSGSGTDYSLTISSLQPEDVATYYCQNFWNVPFTFGSGTKLEIK
B19: chBG138P (antibody, V domains shown)
VH: QVQLLQSGAELARPGASVKMSCKASGYTFTTYTMHWIKQRPGQGLEWIGYINPGSDYTHYNQKFKDKATLTADKSSSTAYMHLYSLTSEDSAVYYCARQGNYAAYYFDYWGQGTTLTVSS
VL: DIQMTQSPASLSASVGETVTITCRASGNIHNFLVWYQQKQGKSPQLLVYNAKTLTDGVPSRFSGSGSGTQYSLKIKSLQPEDFGTYYCQNFWNVPFTFGSGTKLEIK
B20: chBG219P (antibody, V domains shown)
VH: EVQLVESGGGLVKPGGSLKLSCAASGFTFNDYIMSWVRQTPEKRLEWVATVSSGGDNTYYPDSVKGRFTISRDNAKNNLYLQMSSLRSEDTALYYCTRYGGLGAMDYWGQGTSVTVSS
VL: DIVMTQSPASLSASVGETVTITCRASGNIHNYLTWYQQKQGKSPQLLVYNAKTLADGVPSRFSGSGSGPQYSLKINSLQPEDFGSYYCQHFWSVPYTFGGGTRLEIK
B21: chBG346P (antibody, V domains shown)
VH: EVQLQQSGAELVKPGASVKISCKASGYTFTNYWMNWVRQRPGQGLEWIGEIDPSDSYTNNNQKFKDKATLTVDKSSSTAYMQLSSLTSEDSAVYYCARGRRTGFAYWGQGTLVTVSS
VL: DIQMTQSPASLSVSVGETVTITCRASENIYSNLAWYQKKQGKSPQLLVYAATNLADGVPSRFSGSGSGTQYSLKINSLQSEDFGNYYCQHFWGTPYTFGGGTKLEIK

Drawing on patent publication US20250382384A1, this text covers Kd, EC50 (read off the curve) and EC50 for 21 molecules.

Chain of full-length cynomolgus MUC1 on stably transfected cells (cynomolgus) (chain, as listed by the source limits assumed, form in doubt): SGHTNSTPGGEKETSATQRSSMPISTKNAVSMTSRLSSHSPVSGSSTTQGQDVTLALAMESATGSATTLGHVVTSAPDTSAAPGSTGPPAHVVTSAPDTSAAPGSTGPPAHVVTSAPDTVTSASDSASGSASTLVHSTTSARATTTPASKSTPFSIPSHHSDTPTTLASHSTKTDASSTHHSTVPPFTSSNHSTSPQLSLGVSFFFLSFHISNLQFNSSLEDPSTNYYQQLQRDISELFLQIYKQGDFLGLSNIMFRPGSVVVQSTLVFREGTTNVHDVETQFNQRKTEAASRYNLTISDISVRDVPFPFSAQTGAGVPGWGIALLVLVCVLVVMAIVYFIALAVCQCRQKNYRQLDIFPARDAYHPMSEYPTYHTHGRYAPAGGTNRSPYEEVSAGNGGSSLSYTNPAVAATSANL

In one assay the target is cynomolgus MUC1 SEA domain protein (cynomolgus). Nature of the assay: SPR (Biacore 2000), antibody captured, cynoMUC1 SEA analyte, 1:1 binding. For orientation: In SPR one partner is held on a chip, and binding of the other changes the refractive index at the surface.
As usually defined, the Kd is the constant that tells how readily two partners part at equilibrium. Low values mean higher affinity, high ones lower affinity. Regarding B1, the Kd worked out at 91.7 nM.
Same read-out and setting: the value for B2 was 5.6 nM; that for B3 was 24.4 nM; that for B4 was 6.31 nM.
On to B5, for which the dissociation constant (Kd) is 6.73 nM.
Molecule B6 yielded a Kd of 6.11 nM.
The same measure, in the same setting: then B7, with 6.56 nM.
Still for that read-out and setting: the value for B8 was 9.42 nM; that for B9 was 6.79 nM; that for B10 was 6.28 nM.
Same read-out and setting: the value for B11 was 13.5 nM; that for B12 was 6.81 nM.
The molecule B13 had a Kd of 6.96 nM.
Still for that read-out and setting: then B14, with 9.04 nM; and B15, with 6.59 nM; and B16, with 4.35 nM.
On the same count and under the same terms, then B17, with 7.18 nM; and B18, with 6.7 nM.

A further assay addresses full-length cynomolgus MUC1 on stably transfected cells (cynomolgus). Nature of the assay: FACS (iQue3) on HEK293-cynoMUC1 cells.
As a reminder, the EC50 (read off the curve) is the concentration that produces a half-maximal response. B19: the half-maximal effective concentration (EC50 (read off the curve)) was 4 nM.

A further assay shares this target. Nature of the assay: FACS on HEK293/cyno MUC1.
Usually EC50 stands for the concentration at which the effect is half-maximal. Consider B20, for which the EC50 was 12.7 nM.
The same measure, in the same setting: the value for B19 was 7.55 nM; that for B21 was 41.8 nM.
